The text below walks through data of article PMC7205207, “Modeling and mitigation of high-concentration antibody viscosity through structure-based computer-aided protein design” (PLoS ONE, 2020).

Data set [1] is described as follows: AC-SINS; self-association assay, as in Avery et al. [35]; score = smoothed max absorbance of the antibody sample minus that of the average blank (PBS); scores >=11 considered high. The following applies: other: AC-SINS.
Data set [2] concerns the target T1, human PDGF-BB (platelet derived growth factor B homodimer) (human, UniProt P01127 82-190).
T1 construct: Platelet derived growth factor B, human, homodimer, bought from PeproTech; the printed catalogue number may stand for 100-14B; source: bought: PeproTech, Catalog 100-148
The experiment in a line: SPR; Biacore T200, full kinetics; antibody captured by anti-human IgG on a CM5 chip; human PDGF-BB at 20, 10, 5, 2.5 and 1.25 nM, 50 s injection; HBS-EP+ N; 25 C; 1:1 Langmuir fit. The following applies: both partners purified. (In general: SPR reads the build-up and loss of mass on a sensor chip optically.)

The target of data set [3] is T1, human PDGF-BB (platelet derived growth …). The experiment in a line: SPR; Biacore T200, off-rate screen; antibody captured (~70 to 100 RU) by anti-human IgG amine-coupled to a CM5 chip; human PDGF-BB injected at a single 2.5 nM for 170 s, dissociation 300 s; HBS-EP+ N (10 mM HEPES, 500 mM NaCl, 3 mM EDTA, 0.05% Tween20, pH 7.4); 25 C. The following applies: both partners purified.

T1 sequence (P01127 82-190): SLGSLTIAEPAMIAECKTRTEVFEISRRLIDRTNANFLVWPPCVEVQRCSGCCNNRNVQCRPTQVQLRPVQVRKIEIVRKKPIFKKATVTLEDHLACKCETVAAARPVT

B1: AB-001 (antibody, V domains shown)
VH: EVQLLESGGGLVQPGGSLRLSCAASGFTFSSYAMSWVRQAPGKGLEWVSYISDDGSLKYYADSVKGRFTISRDNSKNTLYLQMNSLRAEDTAVYYCAKHPYWYGGQLDLWGQGTLVTVSS
VL: SYELTQPPSVSVSPGQTASITCSGDSLGSYFVHWYQQKPGQSPVLVIYDDSNRPSGIPERFSGSNSGNTATLTISGTQAMDEADYYCSAFTHNSDVFGGGTKLTVL
notes: VH of AB-001; VL of AB-001; only the variable regions are written; also called parental AB-001; parental clone; source: HEK293, transient, purified from conditioned medium (protein A, TMAE, HIC)
What is called Kd is the free concentration of one partner at which half of the binding sites on the other are occupied at equilibrium, for simple one-to-one binding. One may read the koff as the rate constant with which the complex falls apart. A word on the kon: it is the rate constant with which the complex forms. A lower kon goes with slow association. B1 yielded an AC-SINS Score in data set [1] of 22. In data set [2], this molecule returned a Kd of 0.0948 ± 0.0292 nM, an off-rate (koff) of 0.000457 s⁻¹ and a kon of 5.05e+06 M⁻¹ s⁻¹. Further, in data set [3], the dissociation rate constant (koff) came out at 0.000319 s⁻¹.
